Reference: patent US20030203415A1 (published 2003)
“And” between values parts separate entries of the source, which are not always exact repeats. Equal entries are not always repeated. Each block holds one binder with its values, some of them ahead of it. Ends that are not written are not given here. fluorescein = fluorescein label attached through NHS-fluorescein to the ε-amino side group of the C-terminal lysine

Key:
[1] = target: T1, human serum albumin (HSA) (human, UniProt P02768 25-609); test: phage ELISA on immobilized HSA
T1 construct: control target

[2] = target: T2, H6NA3 (UniProt P06731 35-144; P06731 499-590, limits assumed); test: fluorescence anisotropy, direct binding
T2 construct: domain: N domain;domain: A3 domain; recombinant truncated target
T2 sequence: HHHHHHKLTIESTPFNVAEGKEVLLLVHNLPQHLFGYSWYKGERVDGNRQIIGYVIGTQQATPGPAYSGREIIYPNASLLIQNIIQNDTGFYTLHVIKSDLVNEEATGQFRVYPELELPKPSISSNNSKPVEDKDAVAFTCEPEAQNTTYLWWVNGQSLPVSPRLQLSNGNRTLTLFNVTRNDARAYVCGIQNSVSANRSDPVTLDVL

[3] = target: T2, H6NA3; test: fluorescence anisotropy, direct binding; remark: listed apart in the source
Method: (§1) Dissociation constants were determined using fluorescence anisotropy, through direct binding measurements and competition experiments. In direct binding assays, the concentration of the fluorescein-labeled peptide is held constant and the concentration of H6NA3 is varied. In the competition experiment, the concentration of the fluorescein-labeled peptide and the H6NA3 target are held constant and the concentration of a competitor (cT84.66, unlabeled) is varied. The change in anisotropy is fit to the appropriate equation via nonlinear regression to obtain the apparent Kd.

[4] = target: T2, H6NA3; test: fluorescence anisotropy, competition with unlabeled cT84.66
Method: as §1

[5] = target: T2, H6NA3; test: fluorescence anisotropy
Method: as §1

[6] = target: T2, H6NA3; test: fluorescence anisotropy, competition with peptide from Isolate 12-H12
Method: (§2) Dissociation constants were determined using fluorescence anisotropy, through direct binding measurements to either NA-3 or CEA in PBS with 0.01% TWEEN 20. In direct binding assays, the concentration of the fluorescein-labeled peptide is held constant and the concentration of NA3 is varied. In the competition experiment, the concentration of the fluorescein-labeled peptide and the NA3 target are held constant and the concentration of competitor peptide (from Isolate 12-H12) is varied. The change in anisotropy is fit to the appropriate equation via nonlinear regression to obtain the apparent Kd. […] Replicate analyses were run for certain binders and are reported to confirm accuracy and precision of measurements. KD standard error values are calculated from the nonlinear regression (SIGMAPLOT, SPSS Science, Chicago, Ill.).

[7] = target: T2, H6NA3; test: fluorescence anisotropy, direct binding; remark: listed apart in the source
Method: as §2

[8] = target: T2, H6NA3; test: fluorescence anisotropy, competition with peptide from Isolate 12-H12 (replicate)
Method: as §2

[9] = target: T3, carcinoembryonic antigen (CEA) (UniProt P06731 35-685, limits assumed); test: fluorescence anisotropy, direct binding
T3 sequence (looked up): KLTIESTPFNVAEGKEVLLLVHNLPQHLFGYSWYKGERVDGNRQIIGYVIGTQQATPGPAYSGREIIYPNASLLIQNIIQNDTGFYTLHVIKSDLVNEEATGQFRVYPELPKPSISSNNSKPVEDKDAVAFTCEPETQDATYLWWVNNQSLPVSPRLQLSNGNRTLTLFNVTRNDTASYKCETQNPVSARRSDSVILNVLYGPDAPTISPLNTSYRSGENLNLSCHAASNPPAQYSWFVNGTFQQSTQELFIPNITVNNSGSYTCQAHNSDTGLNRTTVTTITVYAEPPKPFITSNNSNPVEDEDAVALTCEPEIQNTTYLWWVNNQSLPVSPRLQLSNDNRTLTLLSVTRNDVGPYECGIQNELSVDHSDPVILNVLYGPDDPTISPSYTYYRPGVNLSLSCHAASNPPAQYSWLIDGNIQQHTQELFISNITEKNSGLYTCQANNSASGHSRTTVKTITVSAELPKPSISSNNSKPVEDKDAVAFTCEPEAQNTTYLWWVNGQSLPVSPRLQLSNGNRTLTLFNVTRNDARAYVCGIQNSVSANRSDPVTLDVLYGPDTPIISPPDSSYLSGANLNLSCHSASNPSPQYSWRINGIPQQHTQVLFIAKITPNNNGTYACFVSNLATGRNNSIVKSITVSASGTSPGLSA
Method: as §2

[10] = target: T2, H6NA3; test: fluorescence anisotropy, direct binding (replicate)
Method: as §2

[11] = target: T2, H6NA3; test: fluorescence anisotropy, direct binding; remark: listed apart in the source
Method: as §1
Dissociation constants were determined using fluorescence anisotropy, through direct binding measurements (see Example 6).

[12] = target: T2, H6NA3; test: fluorescence anisotropy, direct binding; remark: listed apart in the source

T1 sequence (P02768 25-609 limits assumed): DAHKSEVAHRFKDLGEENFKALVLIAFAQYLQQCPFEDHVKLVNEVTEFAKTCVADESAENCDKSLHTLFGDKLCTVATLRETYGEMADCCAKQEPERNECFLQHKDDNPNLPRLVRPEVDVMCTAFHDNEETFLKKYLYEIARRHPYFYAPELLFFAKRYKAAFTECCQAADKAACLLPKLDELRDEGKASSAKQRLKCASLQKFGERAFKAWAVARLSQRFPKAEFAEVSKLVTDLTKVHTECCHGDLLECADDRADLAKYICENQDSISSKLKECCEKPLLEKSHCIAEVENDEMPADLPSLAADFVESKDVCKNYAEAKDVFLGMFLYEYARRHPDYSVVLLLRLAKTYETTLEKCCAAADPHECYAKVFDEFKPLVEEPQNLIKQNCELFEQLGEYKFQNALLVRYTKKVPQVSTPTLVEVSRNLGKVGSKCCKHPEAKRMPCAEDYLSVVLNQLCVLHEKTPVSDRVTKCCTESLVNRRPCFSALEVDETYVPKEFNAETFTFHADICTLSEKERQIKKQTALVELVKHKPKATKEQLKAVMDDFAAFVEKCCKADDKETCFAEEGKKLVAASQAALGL

binding result [1]: no binding
B1: TN10/9-E01 (peptide)
peptide: NWDCMFGAEGWACSPW
modifications: not fully specified (bridges); cysteine pairing not given here

binding result [1]: no binding
B3: AB-A07 (peptide)
peptide: DWVCENKKDQWTCNLL
modifications: not fully specified (bridges); cysteine pairing not given here
notes: also called TN10/9 Isolate A07

binding result [1]: no binding
B6: G01 (peptide)
peptide: NWRCKLFPRYPYCSSW
notes: also called TN10/9 Isolate G01

binding result [1]: no binding
B7: B10 (peptide)
peptide: RYCEFFPWSLHCGRP
notes: also called TN10/9 Isolate B10

binding result [1]: no binding
B8: TN10/9-D04 (peptide)
peptide: DWVCNFDQGLAHCFPS
modifications: not fully specified (bridges); cysteine pairing not given here

binding result [1]: no binding
B9: TN10/9-F11 (peptide)
peptide: NWFCEMIGRQWGCVPS

binding result [1]: no binding
B14: FX-G08 (peptide)
peptide: NWVCNLFKNQWFCNSY
notes: also called TN10/9 Isolate G08

More lines, now with the values behind:

B2: 304A-14-A12 synthetic peptide (peptide, part only; not given: C-terminal lysine extension, part only)
peptide, part: DWVCNLFKNQWFCDTL
modifications: not fully specified (C-terminus, bridges); cysteine pairing not given here; also: fluorescein on ε-amino of C-terminal lysine, no C-terminal K in given chain
Kd [2]: 640 nM

B4: P-E01 (peptide)
peptide: SNWDCMFGAEGWACSPWAPGGEGGGSK(fluorescein)-NH2
modifications: not fully specified (bridges); printed as SNWDCMFGAEGWACSPWAPGGEGGGSK-CONH2; cysteine pairing not given here; also: fluorescein on C-terminal Lys ε-amino in labelled aliquots
notes: synthetic 27-mer
Kd [3]: 6900 nM
Kd [4]: 5300 nM
Kd [5]: 7000 nM

B5: P-A07 (peptide)
peptide: SDWVCENKKDQWTCNLLAPGGEGGGSK(fluorescein)-NH2
modifications: not fully specified (bridges); printed as SDWVCENKKDQWTCNLLAPGGEGGGSK-CONH2; cysteine pairing not given here; also: fluorescein on C-terminal Lys ε-amino in labelled aliquots
notes: synthetic 27-mer
Kd [3]: 5900 nM
Kd [4]: 3600 nM

B10: P-G08 (peptide)
peptide: SNWVCNLFKNQWFCNSYAPGGEGGGSK(fluorescein)-NH2
modifications: not fully specified (bridges); printed as SNWVCNLFKNQWFCNSYAPGGEGGGSK-CONH2; cysteine pairing not given here; also: fluorescein on C-terminal Lys ε-amino in labelled aliquots
notes: synthetic 27-mer; also called Isolate G08 peptide
Kd [3]: 1900 nM

B11: 315A-18-E01 synthetic peptide (peptide)
peptide: DWVCEIVKNQWICNPLAPGGEGGGSK(fluorescein)-NH2
modifications: not fully specified (bridges); cysteine pairing not given here; also: fluorescein on C-terminal Lys ε-amino in labelled aliquots
notes: synthetic
Kd [6]: 230 nM
Kd [7]: 870 nM
Kd [8]: 490 nM and 170 nM

B12: Hybrid H12/A12 (peptide, part only; not given: C-terminal lysine extension, part only)
peptide, part: DWVCEYFKNQWFCDTL
modifications: not fully specified (C-terminus, bridges); cysteine pairing not given here; also: fluorescein on ε-amino of C-terminal lysine, no C-terminal K in given chain
Kd [2]: 2800 nM

B13: 315A-18-E02 synthetic peptide (peptide)
peptide: DWVCEFFKDQWFCNILAPGGEGGGSK(fluorescein)-NH2
modifications: not fully specified (bridges); cysteine pairing not given here; also: fluorescein on C-terminal Lys ε-amino in labelled aliquots
notes: synthetic
Kd [6]: 310 nM
Kd [7]: 380 nM
Kd [9]: 2600 nM
Kd [8]: 290 nM and 220 nM and 140 nM

B15: P-B09 (peptide)
peptide: SDWVCELTTGGYVCQPLAPGGEGGGSK(fluorescein)-NH2
modifications: not fully specified (bridges); printed as SDWVCELTTGGYVCQPLAPGGEGGGSK-CONH2; cysteine pairing not given here; also: fluorescein on C-terminal Lys ε-amino in labelled aliquots
notes: synthetic 27-mer
Kd [3]: 6000 nM
Kd [4]: 1000 nM

B16: 315A-17-G08 synthetic peptide (peptide)
peptide: DWVCEFIKSQWFCNVLAPGGEGGGSK(fluorescein)-NH2
modifications: not fully specified (bridges); cysteine pairing not given here; also: fluorescein on C-terminal Lys ε-amino in labelled aliquots
notes: synthetic
Kd [6]: 160 nM
Kd [7]: 270 nM
Kd [9]: 1600 nM
Kd [8]: 160 nM

B17: 315A-17-B01 synthetic peptide (peptide)
peptide: DWVCEWLKMQWACNILAPGGEGGGSK(fluorescein)-NH2
modifications: not fully specified (bridges); cysteine pairing not given here; also: fluorescein on C-terminal Lys ε-amino in labelled aliquots
notes: synthetic
Kd [6]: 900 nM
Kd [7]: 950 nM
Kd [8]: 1200 nM

B18: 304A-12-H12 synthetic peptide (peptide)
peptide: DWVCEYFKNQWFCNVLAPGGEGGGSK-NH2
modifications: not fully specified (residue 26, bridges); cysteine pairing not given here; also: fluorescein only on labelled aliquots
notes: synthetic; also called DX306
Kd [6]: 340 nM
Kd [10]: 220 nM
Kd [11]: 240 nM
Kd [7]: 300 nM
Kd [9]: 3700 nM
fold increase in affinity compared to the Isolate G08 peptide [12]: 8 fold
Kd [8]: 240 nM

B19: 315A-17-B12 synthetic peptide (peptide)
peptide: DWVCEWLKPQWYCNSLAPGGEGGGSK(fluorescein)-NH2
modifications: not fully specified (bridges); cysteine pairing not given here; also: fluorescein on C-terminal Lys ε-amino in labelled aliquots
notes: synthetic
Kd [6]: 650 nM
Kd [7]: 1800 nM
binding result [9]: no binding
